Assay results: patent US20200407715
Read-outs that look alike come from different tables or passages of the source.

Key:
[1] = system: T1, Cas12i2 mammalian construct (uncultured freshwater lake metagenome); test: cell_activity; settings: PAM TTC; 293T cells, 72 h; indels centred around +20 from PAM
T1 sequence: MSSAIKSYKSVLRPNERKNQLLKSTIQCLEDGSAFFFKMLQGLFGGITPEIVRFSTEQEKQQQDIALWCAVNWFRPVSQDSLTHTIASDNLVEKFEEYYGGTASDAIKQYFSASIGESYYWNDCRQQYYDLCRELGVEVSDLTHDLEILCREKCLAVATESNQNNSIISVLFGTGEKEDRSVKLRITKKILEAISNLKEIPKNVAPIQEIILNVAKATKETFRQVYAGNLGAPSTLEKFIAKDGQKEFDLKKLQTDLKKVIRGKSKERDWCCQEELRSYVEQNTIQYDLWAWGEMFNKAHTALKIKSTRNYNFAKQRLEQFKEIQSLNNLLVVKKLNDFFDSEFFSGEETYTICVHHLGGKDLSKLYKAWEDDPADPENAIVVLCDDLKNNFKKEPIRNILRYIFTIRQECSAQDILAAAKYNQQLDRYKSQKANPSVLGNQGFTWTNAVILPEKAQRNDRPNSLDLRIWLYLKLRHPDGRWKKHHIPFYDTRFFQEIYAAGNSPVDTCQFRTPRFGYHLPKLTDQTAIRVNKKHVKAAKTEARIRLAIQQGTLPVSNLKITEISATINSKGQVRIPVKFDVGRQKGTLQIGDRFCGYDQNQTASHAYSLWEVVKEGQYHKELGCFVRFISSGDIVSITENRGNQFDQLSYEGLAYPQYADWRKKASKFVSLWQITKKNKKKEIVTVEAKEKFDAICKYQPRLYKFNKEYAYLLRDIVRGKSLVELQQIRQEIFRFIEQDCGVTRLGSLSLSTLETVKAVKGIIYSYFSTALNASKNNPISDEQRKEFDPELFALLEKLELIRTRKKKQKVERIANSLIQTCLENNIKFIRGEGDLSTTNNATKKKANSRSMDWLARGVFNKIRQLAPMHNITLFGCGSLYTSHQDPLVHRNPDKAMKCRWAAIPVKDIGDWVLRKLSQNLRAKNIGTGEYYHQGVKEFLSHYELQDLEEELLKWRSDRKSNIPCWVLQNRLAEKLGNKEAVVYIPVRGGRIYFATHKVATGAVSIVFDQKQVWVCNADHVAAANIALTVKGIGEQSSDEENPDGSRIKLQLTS

[2] = system: T2, Cas12i1 (IVTT-expressed) (uncultured freshwater metagenome); settings: IVTT gene silencing, after 400 min
T2 sequence: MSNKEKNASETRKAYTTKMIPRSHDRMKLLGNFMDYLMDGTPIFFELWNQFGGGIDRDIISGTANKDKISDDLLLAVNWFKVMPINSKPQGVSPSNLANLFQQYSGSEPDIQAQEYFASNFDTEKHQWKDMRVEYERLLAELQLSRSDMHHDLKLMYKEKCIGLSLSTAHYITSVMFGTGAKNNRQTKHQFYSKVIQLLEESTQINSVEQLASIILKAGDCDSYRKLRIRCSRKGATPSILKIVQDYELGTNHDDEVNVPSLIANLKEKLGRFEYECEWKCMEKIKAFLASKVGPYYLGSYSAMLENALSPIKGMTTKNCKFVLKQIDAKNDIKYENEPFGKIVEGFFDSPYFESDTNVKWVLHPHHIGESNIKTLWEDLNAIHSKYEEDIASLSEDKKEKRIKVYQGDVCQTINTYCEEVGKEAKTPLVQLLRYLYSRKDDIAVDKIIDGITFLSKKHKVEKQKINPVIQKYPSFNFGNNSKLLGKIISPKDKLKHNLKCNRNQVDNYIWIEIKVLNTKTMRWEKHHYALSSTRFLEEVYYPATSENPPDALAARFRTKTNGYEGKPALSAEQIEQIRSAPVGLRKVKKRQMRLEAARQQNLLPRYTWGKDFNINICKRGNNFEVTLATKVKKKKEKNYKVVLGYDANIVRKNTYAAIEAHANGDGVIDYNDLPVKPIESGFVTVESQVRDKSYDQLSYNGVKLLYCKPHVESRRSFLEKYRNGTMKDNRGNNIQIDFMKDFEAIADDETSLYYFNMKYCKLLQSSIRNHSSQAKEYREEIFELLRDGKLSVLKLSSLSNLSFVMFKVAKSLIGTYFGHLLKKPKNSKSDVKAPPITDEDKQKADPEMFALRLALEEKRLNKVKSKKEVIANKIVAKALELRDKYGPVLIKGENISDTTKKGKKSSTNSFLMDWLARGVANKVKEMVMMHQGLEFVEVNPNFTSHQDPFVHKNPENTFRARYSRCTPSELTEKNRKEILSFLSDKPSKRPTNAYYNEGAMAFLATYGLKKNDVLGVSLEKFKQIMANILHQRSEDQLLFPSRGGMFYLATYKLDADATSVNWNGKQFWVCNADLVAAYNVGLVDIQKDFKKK

[3] = system: T2, Cas12i1 (IVTT-expressed) (uncultured freshwater metagenome); settings: IVTT gene silencing

VEGFA guide for Cas12i2 (pre-crRNA) ; VEGFA locus target, TTC PAM
activity [1]: 13 % indel

GFP guide complementary to template strand ; GFP plasmid (sigma 28 promoter)
activity (fold GFP depletion) [2]: 2

GFP guide complementary to coding strand ; GFP plasmid (sigma 28 promoter)
activity (fold GFP depletion) [3]: > 4
